Measurements taken from article PMC4050180 (FEBS Open Bio, 2014).

T1: 6xHis-TF-DGKα-C1 domains (porcine, UniProt P20192 196-362)
T1 sequence (looked up): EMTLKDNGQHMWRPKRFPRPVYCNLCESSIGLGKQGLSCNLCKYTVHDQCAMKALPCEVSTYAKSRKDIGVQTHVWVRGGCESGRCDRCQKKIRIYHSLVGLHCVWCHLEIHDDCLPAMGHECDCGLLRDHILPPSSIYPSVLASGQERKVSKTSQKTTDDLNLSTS

B1: GST-DGKα-EF-hand motifs (domain or fragment)
chain: not shown
B2: EGFP-DGKα-C-terminal region (domain or fragment)
chain: not shown

Legend:
6xHis-TF-DGKα-C1 domains = molecular target: T1, 6xHis-TF-DGKα-C1 domains; assay: pull-down
GST-DGKα-EF-hand motifs = molecular target: B1; assay: pull-down
Chain of GST-DGKα-EF-hand motifs (P20192 103-200): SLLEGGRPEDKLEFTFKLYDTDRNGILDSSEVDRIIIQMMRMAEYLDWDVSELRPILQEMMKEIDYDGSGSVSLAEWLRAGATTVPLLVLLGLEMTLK

binding result (6xHis-TF-DGKα-C1 domains)	band intensity relative to the RVH domain (GST-DGKα-EF-hand motifs)	Binder
binds	–	B1
–	~3 fold	B2
